According to IntAct's records for PubMed 18776901:

B1: Non-catalytic caspase homolog csp-3 (Caenorhabditis elegans), G5ECW5 (parent)
chain: MFFGKLGGFAFFLQRAVRCDGFIDNFFDRIPKFFQFMKSKFPSHQTSSSQADLLVSFSTSPGFLSFKDETKDTWYIQELYRVIIENAKDTHLADLLTETNRRVVEKYEADKVVFVCKQAPEFWSRFTKQLFFMSRNDVF
partner: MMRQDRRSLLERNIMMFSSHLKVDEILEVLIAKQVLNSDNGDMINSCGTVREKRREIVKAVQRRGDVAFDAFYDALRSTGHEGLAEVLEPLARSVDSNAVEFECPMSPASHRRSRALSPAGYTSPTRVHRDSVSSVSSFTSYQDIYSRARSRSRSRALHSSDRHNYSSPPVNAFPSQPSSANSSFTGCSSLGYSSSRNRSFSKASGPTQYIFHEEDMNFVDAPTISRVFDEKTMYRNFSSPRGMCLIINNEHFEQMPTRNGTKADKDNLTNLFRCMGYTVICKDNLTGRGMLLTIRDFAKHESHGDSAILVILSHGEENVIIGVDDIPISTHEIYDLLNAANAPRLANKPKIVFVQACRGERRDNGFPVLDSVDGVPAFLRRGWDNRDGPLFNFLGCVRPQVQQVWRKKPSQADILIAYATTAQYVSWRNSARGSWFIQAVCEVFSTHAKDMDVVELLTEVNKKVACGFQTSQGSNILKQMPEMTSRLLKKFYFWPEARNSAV

Variants of: B1
Conditions: with ced3_caeel ced-3, P42573

effect of a mutation on the interaction | Variant
decreasing interaction | MFFGKLGGFAFFLQRAVRCDGFIDNFFDRIPKFFQFMKSKFPSHQTSSSQADLLVSDSTSPGFLSFKDETKDTWYIQELYRVIIENAKDTHLADLLTETNRRVVEKYEADKVVFVCKQAPEFWSRFTKQLFFMSRNDVF

Variants of: B1
Conditions: with ced3_caeel ced-3, P42573
Remark: another data set of the same source

effect of a mutation on the interaction | Variant
decreasing interaction strength | MFFGKLGGFAFFLQRAVRCDGFIDNFFDRIPKFFQFMKSKFPSHQTSSSQADLLVSDSTSPGFLSFKDETKDTWYIQELYRVIIENAKDTHLADLLTETNRRVVEKYEADKVVFVCKQAPEFWSRFTKQLFFMSRNDVF
